The values below come from patent US8574882B2, “Thermostable 1,5-anhydroglucitol dehydrogenase, and method for measurement of 1,5-anhydroglucitol by using the same” (Nippon Kayaku Kabushiki Kaisha, priority 2008, dated 2013).

Changes are numbered by the printed parent chain. Names may count otherwise.

The test system of data set [1] is 1,5-AG dehydrogenase (Ver. 0). Put plainly: Substrate specificity of parent strain-derived 1,5-AG dehydrogenase. The following applies: activity for 1,5-AG as 100%; Ver. 0, 40%-saturated ammonium sulfate precipitate fraction. It counts as biochemical, Pseudomonas sp. NK-85001. On the procedure:
(§1) The components other than the crude enzyme solution are mixed and kept at 37° C. for 10 minutes. Then, the crude enzyme solution is added to the reaction solution to initiate reaction. Decrease in absorbance at 600 nm for 1 minute with the temperature kept at 37° C. is determined.
A precipitate fraction of 40%-saturated ammonium sulfate was collected by centrifugation and dissolved in a 50 mM sodium phosphate buffer, pH 7.5.

Data set [2] is described as follows: 1,5-AG dehydrogenase activity determination of crude enzyme solution (L-sorbose, DCIP, 1-m-PMS, decrease in absorbance at 600 nm). Type of data set: biochemical. On the procedure: The E. coli JM109 strains transformed with the pTrc-PS15DH vectors confirmed in the paragraph (I) to have the insert fragment were inoculated to 3 mL of an LB medium containing 100 μg/mL ampicillin and cultured at 28° C. for 14 hours. Of this culture solution, a 0.2 mL aliquot was inoculated to 10 mL of an LB medium (containing 100 μg/mL ampicillin). Approximately 3 hours later, the rise of OD600 of the culture solution to 0.4 to 0.7 was confirmed, and 1,5-AG dehydrogenase expression in E. coli was then induced by the addition of 0.1 M IPTG (final concentration: 0.1 mM) to the medium. This culture solution was further cultured overnight at 28° C. and centrifuged at 10000×g for 5 minutes to precipitate cells. The supernatant was removed, and the pellet was then washed twice with a 0.85% aqueous NaCl solution. Cells were precipitated by centrifugation. Then, the microbial cells were suspended in 1 mL of a 50 mM sodium phosphate buffer, pH 7.5. Triton X-100 was added thereto at a concentration of 0.25%, and the microbial cells were disrupted using a bead impact-type cell disrupter MINI-BEAD BEATER (30 seconds×4, manufactured by Central Scientific Commerce, Inc.) while cooled in ice. After centrifugation at 20000×g for 10 minutes, the supernatant was examined as a crude enzyme solution for its 1,5-AG dehydrogenase activity. The composition of the reaction solution is as described below. Since the 1,5-AG dehydrogenase also reacts with L-sorbose as its substrate, L-sorbose was used for convenience instead of 1,5-AG in the enzymatic activity determination.
Composition of Reaction Solution:
as §1
The enzymatic activity can be determined according to the following equation: Enzymatic activity (U/mL)=(Δ600/min×0.6 (mL)×dilution ratio of crude enzyme solution)/(16.3×0.01 (mL)).
(§2) The E. coli JM109 containing the gene encoding each thermostable 1,5-AG dehydrogenase obtained in the paragraphs to [4] of EXAMPLE 2 was transplanted to 10 mL of an LB liquid medium containing 50 μg/mL ampicillin and 0.1 mM IPTG and shake-cultured at 30° C. for 16 hours. 10 mL of the shake-culture solution was centrifuged at 10000 rpm for 5 minutes. The culture supernatant was removed, and the pellet was then washed twice with a 0.85% aqueous NaCl solution. These microbial cells were suspended in 1 mL of a 50 mM sodium phosphate buffer (pH 7.5) containing 0.25% Triton X-100. The microbial cells were disrupted using a bead impact-type cell disrupter MINI-BEAD BEATER (30 seconds×4, manufactured by Central Scientific Commerce, Inc.) while cooled in ice. After centrifugation at 15000 rpm for 10 minutes, the supernatant was used as a crude enzyme solution. When the crude enzyme solution was heat-treated, the treatment was performed for 10 minutes in a water bath of 45° C., 50° C., 55° C. or 60° C.
(§3) The enzymatic activity of the 1,5-AG dehydrogenase was calculated by measurement by the same approach as that described in the paragraph (J) of EXAMPLE 1.
(§4) A specific activity that represents the enzymatic activity of the 1,5-AG dehydrogenase per mg of the crude enzyme solution was calculated according to the following equation: Specific activity (U/mg)=enzymatic activity (U/mL)/protein concentration of crude enzyme solution (mg/mL). Moreover, the rate of residual activity was calculated according to the following equation: Rate of residual activity (%)=(specific activity of crude enzyme solution after heat treatment/specific activity of crude enzyme solution before heat treatment)×100.
The 1,5-AG dehydrogenase activity was determined based on the method described in EXAMPLE 1, and its specific activity was determined according to the equation described in EXAMPLE 3.

A short description of data set [3]: Stability of thermostable 1,5-AG dehydrogenase at heat treatment temperature (rate of residual activity). It counts as physicochemical. The note with it: for Rate of residual activity after 10-minute treatment at 60° C. / Rate of residual activity after 10-minute treatment at 45° C. / Rate of residual activity after 10-minute treatment at 50° C. / Rate of residual activity after 10-minute treatment at 55° C.: crude enzyme solution, 10 minutes; for Rate of residual activity after 10-minute treatment at 60° C.: water bath 60° C.; for Rate of residual activity after 10-minute treatment at 45° C.: water bath 45° C.; for Rate of residual activity after 10-minute treatment at 50° C.: water bath 50° C.; for Rate of residual activity after 10-minute treatment at 55° C.: water bath 55° C. On the procedure:
as §2, §3, §4

The mark [4] stands for this setting: crude enzyme solution, L-sorbose as substrate, 37° C.

`OC[C@H]1O[C@H](O[C@H]2[C@H](O)[C@@H](O)C(O)O[C@@H]2CO)[C@H](O)[C@@H](O)[C@@H]1O` (mixture of isomers) [Maltose]: the Relative activity in data set [1] is given as 0.2%.

For the molecule `OC[C@H]1OC[C@H](O)[C@@H](O)[C@@H]1O` [1,5-AG, 1,5-anhydroglucitol], the Relative activity in data set [1] was determined as 100%.

With `O=C[C@H](O)[C@@H](O)[C@H](O)CO` [Xylose], the Relative activity in data set [1] came to 0%.

Turning to `O=C(CO)[C@@H](O)[C@H](O)[C@@H](O)CO` [L-sorbose], the Relative activity in data set [1] came to 54%.

With `OC[C@@H](O)[C@H](O)[C@@H](O)CO` [Xylitol], the Relative activity in data set [1] was 0%.

B1: Ver. 11.1: thermostable 1,5-AG dehydrogenase; SEQ ID NO: 1 having an arginine residue in place of proline at position 156 (protein)
chain: MEFAGQPDIVIIGTGIGGASIAAGLSASGADILILERGESLPDRPENRDQHAIFQRGFFRPKEFWYGTDGTPFNPGNYYYVGGNSKFYGAVLMRYRREDFEELAHLEGVSPAWPFAYDELEPWYCKAEELFQVRGELGDDPTEPYHSKPYSYPAIRDESPIADMRARLKKAGLHPASLPLGVDIERWLAKAKTPWDAHPNSDDGKMDAETCPLALALKHPNVGLETSARVTKLEAGPDGKTIVAVHYVKNGEALVLRPKLVILSAGAVQSAALLLRSGLANRSDQVGRNFMNHNASAVIGFDPRYRNDSVYQKTFGFNDYYLSDGAGGPPLGNVQLLGRVSGAILKSYMRQVPEWFLNRIARHTIDFYAMSEDLPSPESRVSVDGDRIILHWVRSNWKAHLMLVDKLKSALRAAGFPVVLSRAFDRRTPSHQCGTVRIGDNPATAPLDPYCRAYDHPNLYVVDASFLPTSAAANPALTIAAQALRVADHLNREVLA
modifications: Protein expressed by mutated 1,5-anhydroglucitol dehydrogenase gene
B1 yielded a Specific activity in data set [2] (setting [4]) of 0.8 U/mg. Besides, the “Rate of residual activity after 10-minute treatment at 60° C.” value in data set [3] worked out at 73%.

B2: Ver. 11.0: thermostable 1,5-AG dehydrogenase; SEQ ID NO: 1 having arginine at position 156 and valine at position 473 (protein)
chain: B1 chain with A473V
modifications: Protein expressed by mutated 1,5-anhydroglucitol dehydrogenase gene
For the molecule B2, the Specific activity in data set [2] (setting [4]) stood at 3.4 U/mg. In data set [3], the “Rate of residual activity after 10-minute treatment at 45° C.” value (“Rate of residual activity … at 45° C.” for short) was 97.0%, the “Rate of residual activity after 10-minute treatment at 50° C.” value (from here on “Rate of residual activity … at 50° C.”) amounted to 97.0% and the “Rate of residual activity after 10-minute treatment at 55° C.” value is given as 81.0%.

B3: Ver. 12.0: thermostable 1,5-AG dehydrogenase comprising the amino acid sequence represented by SEQ ID NO: 1 (protein)
chain: B1 chain with R156P
modifications: Protein expressed by mutated 1,5-anhydroglucitol dehydrogenase gene
B3: in data set [2] (setting [4]), the Specific activity was 1.2 U/mg. Further, the “Rate of residual activity after 10-minute treatment at 60° C.” value in data set [3] stood at 76%.

B4: Ver. 0: recombinant parent strain (Pseudomonas sp. NK-85001)-derived 1,5-AG dehydrogenase, SEQ ID NO: 4, no thermostability (protein)
chain: MEFGGQPDIVIIGSGIGGASIAAGLSASGADILILEAGESLPDRPENRDPHAIFQRGFFRPKEFWYETDGTPFNPGNYYNVGGNSKFYGAVLVRYRREDFEELAHLEGVSPAWPFAYDELEPWYCKAEELFQVRGELGDDPTEPYHSKPYSYPAIRDESPIADLRARLKKAGLHPASLPLGVDIERWLAKAKTPWDAHPNSNDGKMDAETCPLALALKHPNVGLETSARVTKLETGPDGKTIVAVHYVKNGEALVLRPKLVILSAGAVQSAALLLRSGLANRSDQVGRNFMNHNASAVIGFDPRYRNDSVYQKTFGFNDYYLSDGAGGPPLGNVQLLGRVSGAILKSNMRQVPEWFLNRIAGHTIDFYAMSEDLPSPESRVSVDGDRIILHWVRSNWKAHLMLVDKLKSALRAAGFPVVLSRAFDRRTPSHQCGTVRIGDNPATAPLDPYCRAYDHPNLYVVDASFLPTSAAVNPALTIAAQALRVADHLNREVLA
modifications: Pseudomonas sp. NK-85001
For the molecule B4, the “Enzymatic activity of the crude enzyme solution” value in data set [2] (E. coli JM109 / pTrc-PS15DH, L-sorbose as substrate, 37° C.) worked out at 4.4 U/mL. Also, the Specific activity in data set [2] (setting [4]) is 1.2 U/mg. Further, the “Rate of residual activity … at 45° C.” value in data set [3] is 3.0%.

B5: Ver. 3.0: thermostable 1,5-AG dehydrogenase, protein 19); net vs SEQ ID NO: 4: A37T, P50Q, G362R (protein)
chain: B4 chain with A37T, P50Q, G362R
modifications: Pseudomonas sp. NK-85001
As to B5, the Specific activity in data set [2] (setting [4]) is 2.8 U/mg. The “Rate of residual activity … at 45° C.” value in data set [3] stood at 40.0%.

B6: Ver. 3.2: thermostable 1,5-AG dehydrogenase, protein 17); net vs SEQ ID NO: 4: A37T, P50Q, L164M, G362R (protein)
chain: B4 chain with A37T, P50Q, L164M, G362R
modifications: Pseudomonas sp. NK-85001
For B6, the Specific activity in data set [2] (setting [4]) is recorded as 2.0 U/mg. In addition, the “Thermostability compared with the version(s) it was prepared from” value in data set [3] (Ver. 4.0 vs Ver. 3.2, Ver. 3.2 vs Ver. 3.0 and Ver. 3.1) is “improved thermostability”. For the same molecule, in data set [3], the “Rate of residual activity … at 45° C.” value worked out at 68.0% and the “Rate of residual activity … at 50° C.” value turned out to be 14.0%.

B7: Ver. 2.0: thermostable 1,5-AG dehydrogenase, SEQ ID NO: 22; net vs SEQ ID NO: 4: Q6H, A37T, P50Q (protein)
chain: B4 chain with Q6H, A37T, P50Q
modifications: Mutated 1,5-anhydroglucitol dehydrogenase gene
Take B7: the Specific activity in data set [2] (setting [4]) is 1.4 U/mg; in data set [2] (purification step: CFE (cell-free extracts)), 4.39 U/mg; in data set [2] (purification step: ammonium sulfate precipitation), 13.8 U/mg; in data set [2] (purification step: desalting and concentration) it was 13.5 U/mg; in data set [2] (purification step: weak anion-exchange chromatography (DEAE FF)), 13.5 U/mg. In addition, the “Rate of residual activity … at 45° C.” value in data set [3] is on record as 31.0%.

B8: Ver. 7.1: thermostable 1,5-AG dehydrogenase, SEQ ID NO: 23; Ver. 7.0 plus G4A (protein)
chain: B1 chain with R37T, G67E, Y80N, D202N, A473V
modifications: Mutated 1,5-anhydroglucitol dehydrogenase gene
notes: Ver; 7.0 plus G4A
Molecule B8 yielded a Specific activity in data set [2] (setting [4]) of 2.8 U/mg. Besides, in data set [3], the “Rate of residual activity … at 45° C.” value was 89.0%, the “Rate of residual activity … at 50° C.” value is listed as 61.0% and the “Rate of residual activity after 10-minute treatment at 55° C.” value is given as 10.0%.

B9: Ver. 3.1: thermostable 1,5-AG dehydrogenase, protein 18); net vs SEQ ID NO: 4: A37T, P50Q, L164M (protein)
chain: B4 chain with A37T, P50Q, L164M
modifications: Pseudomonas sp. NK-85001
B9: in data set [2] (setting [4]), the Specific activity is 1.2 U/mg. Moreover, the “Rate of residual activity … at 45° C.” value in data set [3] is given as 54.0%.
